Laboratory results as given in US20090325867A1, “RECEPTOR-SPECIFIC TUMOUR NECROSIS FACTOR-RELATED APOPTOSIS-INDUCING LIGAND (TRAIL) VARIANTS” (MEDICAL RESEARCH COUNCIL, priority 2005, published 2009).

Key:
Ramos cells = assay: Apoptosis by phosphatidylserine (PS) externalization in Ramos cells; assay type: cell-based; conditions: for ability to induce apoptosis in Ramos cells (in words): PS externalization, compared with wt TRAIL
Experimental: Cells were also exposed to HGS-ETR1 or HGSETR2 (1 μg ml^−1). C: Ramos or Jurkat cells were pre-incubated for 30 min either alone or with TRAIL-R1 blocking Ab or TRAIL-R2 neutralizing Ab (5 μg ml^−1). […] D: Ramos and Jurkat cells were exposed to wt TRAIL or TRAIL mutants as described above and processing of caspase-3 and -8 determined by Western blot analysis. The asterisk indicates a non-specific band. The lower panel of the blot for detection of the caspase-8 p18 subunit was exposed for twice as long as the upper panel. Apoptosis was assessed by phosphatidylserine externalization and results expressed as the Means±SEM of at least 3 separate determinations.
(§1) Ramos, an Epstein-Barr virus-negative Burkitt's lymphoma cell line, and Jurkat T cells (clone E6-1) were cultured as described (MacFarlane et al (2005 Cell Death and Differentiation vol 12 pages 773-782)). Blood samples were obtained from CLL patients, with patient consent and local ethical committee approval and CLL cells purified as described (MacFarlane et al (2002 Oncogene 21, 6809-6818). Cells were incubated for 16 h with depsipeptide (10 nM), provided by Dr. E. Sausville (NCI, USA). Cells were then cultured for a further 6 h with either HGSETR1 or HGS-ETR2, agonistic mAbs to TRAIL-R1 or -R2, respectively (Human Genome Sciences, Rockville, Md.), His-TRAIL-LE (a recombinant TRAIL with low endotoxin—Alexis Corporation, Nottingham, UK), His-TRAIL, a similar form of human recombinant TRAIL (MacFarlane et al (1997 J Biol Chem 272, 25417-25420)) but not further purified to reduce endotoxin levels or a mutant form of His-TRAIL as described (MacFarlane et al., 2005 ibid.). Cell lines were also pre-incubated for 30 min with a TRAIL-R1 blocking Ab and a TRAIL-R2 neutralizing Ab from Alexis and R&D systems, respectively, prior to exposure to TRAIL. Freshly isolated cells from patients with MCL were isolated, purified and incubated with different forms of TRAIL as described above for CLL cells. Samples were either analyzed immediately for apoptosis or stored at −80° C. for subsequent Western blotting. Other methods and reagents were as described (Inoue (2004 Cell Death Differ 11 Suppl 2, S193-206); MacFarlane et al., 2005 ibid).
(§2) Apoptosis was quantified by phosphatidylserine (PS) externalization in the presence of propidium iodide as described (MacFarlane et al., 2002 ibid.). Samples for Western blot analysis were prepared and caspase processing detected as described (Inoue et al., 2004 ibid.; MacFarlane et al., 2005 ibid.).
Ramos and Jurkat T cells (clone E6-1) were cultured as described (MacFarlane et al, 2005 ibid.). The breast tumour cell line, MCF-7 (clone F43) was cultured as described previously (MacFarlane et al., 2000 J. Cell Biol. 148, 1239-1254). Cells were cultured for either 4 h (Ramos and Jurkat) or 6 h (MCF-7) with His-TRAIL (MacFarlane et al, 1997 J Biol Chem 272, 25417-25420), HGS-ETR1 or HGS-ETR2 (Human Genome Sciences), or a mutant form of His-TRAIL (MacFarlane et al, 2005 ibid.). Samples were analyzed for apoptosis, Western blotting, or TRAIL DISC activation as described (MacFarlane et al, 2005 ibid.; MacFarlane et al. 2002 Oncogene 21, 6809-6818). Mutants of His-TRAIL (residues 95-281) were generated using the Quik-Change site-directed mutagenesis kit (Stratagene, Calif.), confirmed by DNA sequencing, expressed in E. coli and purified as described (MacFarlane et al, 1997 ibid.). For siRNA targeting of TRAIL-R1/-R2, MCF-7 cells were seeded into six-well plates immediately prior to effectene-mediated RNAi transfection with either a negative control siRNA (30 nM, Ambion, #4611), or preannealed siRNA oligonucleotides for TRAIL-R1 or TRAIL-R2 (30 nM, Ambion), with the sequence and validity described (Ren et al, 2004 Mol. Biol. Cell vol 15 pp 5064-5074). After 40 h of transfection the cells were collected and total TRAIL-R1 or TRAIL-R2 levels assessed. […]

primary CLL cells = assay: Apoptosis in freshly isolated CLL cells after depsipeptide; assay type: cell-based, human; conditions: depsipeptide 10 nM 16 h, then 6 h ligand or antibody, FIG. 2C
Experimental: After exposure of the cells for 30 min, DISC complexes were isolated and analyzed for the indicated proteins by Western blotting. To provide an unstimulated receptor control (u/s), biotinylated wt or mutant TRAIL was added to lysate from untreated cells. C: Freshly isolated cells from patients with CLL were incubated for 16 h either alone or in the presence of depsipeptide (10 nM). […] The different symbols used indicate data from six individual patients and the solid line indicates the Mean.
as §1, §2

B1: TRAIL.R1-5: 6His TRAIL 95-281 with 193Ser, 199Val, 201Arg, 213Trp and 215Asp (protein)
chain: TSEETISTVQEKQQNISPLVRERGPQRVAAHITGTRGRSNTLSSPNSKNEKALGRKINSWESSRSGHSFLSNLHLRNGELVIHEKGFYYIYSQTYFRFSEEIKEVTRNDKQMVQYIYKWTDYPDPILLMKSARNSCWSKDAEYGLYSIYQGGIFELKENDRIFVSVTNEHLIDMDHEASFFGAFLVG
modifications: biotin (site not stated) in the DISC analysis only; not biotinylated in the apoptosis assays
notes: 6His TRAIL 95-281 with 193Ser, 199Val, 201Arg, 213Trp and 215Asp
In the case of B1, the “inhibition of ligand-induced apoptosis by receptor blocking antibodies” value (Ramos cells; 30 min pre-incubation with TRAIL-R1 blocking Ab or TRAIL-R2 neutralizing Ab (5 μg ml^−1)) is reported as “blocking antibody specific to TRAIL-R1 but not to TRAIL-R2 to inhibit apoptosis”, the “concentration-response of apoptosis compared with wt TRAIL” value (Ramos cells; 4 h, FIG. 1B) is reported as “very similar concentration-response to wt TRAIL” and the “% PS+ cells, Ramos” value (Ramos cells; 4 h exposure, 500 ng ml^−, Mean ± SEM of at least three determinations) is reported as 35.9 ± 6.4%. For the same molecule, the “ability to induce apoptosis in Ramos cells (in words)” value (Ramos cells) was “retained most of the activity of wt TRAIL” and the “sensitization of CLL cells to induced apoptosis by depsipeptide” value (primary CLL cells) was “sensitized CLL cells”.

B2: HGS-ETR2 (antibody, INN chains, looked up, V domains shown)
VH: EVQLVQSGGGVERPGGSLRLSCAASGFTFDDYGMSWVRQAPGKGLEWVSGINWNGGSTGYADSVKGRVTISRDNAKNSLYLQMNSLRAEDTAVYYCAKILGAGRGWYFDLWGKGTTVTVSS
VL: SSELTQDPAVSVALGQTVRITCQGDSLRSYYASWYQQKPGQAPVLVIYGKNNRPSGIPDRFSGSSSGNTASLTITGAQAEDEADYYCNSRDSSGNHVVFGGGTKLTVL
With B2 the “ability to induce apoptosis in Ramos cells (in words)” value (Ramos cells) was “not in Ramos cells” and the “sensitization of CLL cells to induced apoptosis by depsipeptide” value (primary CLL cells) was “not”.
